Source: patent US5770690, “Bax omega protein and methods” (Neurex Corporation, dated 1998)

Target: T1, Bax-ω GAL4-transactivation domain hybrid (plasmid Bax-ω-GAL424) (yeast; human)
T1 chain: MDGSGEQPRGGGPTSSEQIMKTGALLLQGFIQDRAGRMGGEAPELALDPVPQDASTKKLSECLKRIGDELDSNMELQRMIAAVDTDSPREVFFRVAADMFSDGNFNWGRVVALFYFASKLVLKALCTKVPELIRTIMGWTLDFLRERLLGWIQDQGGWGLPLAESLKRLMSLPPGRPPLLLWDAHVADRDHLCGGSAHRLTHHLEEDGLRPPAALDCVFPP
Experiment: yeast two-hybrid: β-galactosidase filter assay (SFY526) and growth in the absence of histidine (HF7C); (-) means white signal / no growth

binding result: no binding
B1: Bax-ω GAL4-DNA binding domain hybrid (plasmid Bax-ω-pAS1) (other)
chain: MDGSGEQPRGGGPTSSEQIMKTGALLLQGFIQDRAGRMGGEAPELALDPVPQDASTKKLSECLKRIGDELDSNMELQRMIAAVDTDSPREVFFRVAADMFSDGNFNWGRVVALFYFASKLVLKALCTKVPELIRTIMGWTLDFLRERLLGWIQDQGGWGLPLAESLKRLMSLPPGRPPLLLWDAHVADRDHLCGGSAHRLTHHLEEDGLRPPAALDCVFPP
